# In publication PMC6303327, “A structural and dynamic model for the assembly of Replication Protein A on single-stranded DNA” (Nature Communications, 2018):
# B1: Rfa1 DNA-binding domain-A (DBD-A), residues 178-294 (domain or fragment, S. cerevisiae, UniProt P22336 178-294, looked up)
# chain: SQKTRPIFAIEQLSPYQNVWTIKARVSYKGEIKTWHNQRGDGKLFNVNFLDTSGEIRATAFNDFATKFNEILQEGKVYYVSKAKLQPAKPQFTNLTHPYELNLDRDTVIEECFDESN
# notes: Rfa1 (RPA70 in humans), S. cerevisiae Replication Protein A largest subunit, DBD-A, residues 178-294; amplified from the codon-optimized RPA expression plasmid, cloned into pOPINJ; 3C-cleavable GST fusion; also called Rfa1-DBD-A; source: E. coli BL21 (DE3), purified (glutathione sepharose 4B, on-column 3C cleavage, SEC)
# B2: Rfa1 DBD-A (residues 178-294) phosphomimetic S178D (domain or fragment, S. cerevisiae, UniProt P22336 178-294, looked up)
# chain: DQKTRPIFAIEQLSPYQNVWTIKARVSYKGEIKTWHNQRGDGKLFNVNFLDTSGEIRATAFNDFATKFNEILQEGKVYYVSKAKLQPAKPQFTNLTHPYELNLDRDTVIEECFDESN
# notes: Rfa1, S. cerevisiae, DBD-A, residues 178-294 with S178D (first residue of the fragment); also called DBD-A^S178D; S178D mutant DBD-A; source: E. coli BL21 (DE3), purified (glutathione sepharose 4B, on-column 3C cleavage, SEC)
# Molecular target: T1, Rfa3 DNA-binding domain-E (DBD-E), OB domain, residues 1-99 (S. cerevisiae, UniProt P26755 1-99, fluorescent label NT-495 (Monolith NT protein-labeling Kit Blue-Cys) on free cysteine residues)
# T1 construct: Rfa3 (RPA14 in humans), S. cerevisiae Replication Protein A smallest subunit, residues 1-99; the C-terminal trimerisation helix is removed; 3C-cleavable GST fusion; also called Rfa3-OB; Rfa3-OB domain; source: E. coli BL21 (DE3), purified (glutathione sepharose 4B, on-column 3C cleavage, SEC)
# T1 sequence (P26755 1-99): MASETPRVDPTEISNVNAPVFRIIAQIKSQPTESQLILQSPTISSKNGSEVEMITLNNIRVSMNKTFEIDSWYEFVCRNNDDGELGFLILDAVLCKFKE
# Assay: MST; 50 nM NT-495-labeled DBD-E (or mutant) mixed with equal volumes of a dilution series of DBD-A or DBD-A^S178D; 20 mM Tris pH 7.5, 150 mM NaCl, 0.5 mM TCEP, 0.01% Tween-20, 0.1 mg/ml BSA; 25 °C; apparent EC50 from the Hill equation
# Details: both partners purified
row,Binder,EC50
1,B1,~100 µM
2,B2,~30 µM
